According to US20190136216:

Molecular target: VAMP2, native protein in rat brain detergent extracts (BDE) (UniProt P63045)
Chain of UniProt P63045 (P63045 whole entry, looked up): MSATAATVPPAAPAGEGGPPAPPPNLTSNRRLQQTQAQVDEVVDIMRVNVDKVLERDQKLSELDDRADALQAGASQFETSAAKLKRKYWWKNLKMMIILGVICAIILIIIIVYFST

## LC of BoNT/B (B-LC), residues 1-439, His6-tagged
  cleavage of SNARE proteins in rat brain detergent extracts (immunoblot): abolishes the immunoblot signal of VAMP2
